Reference: patent publication US11123408B2, “Compositions and methods for treating nonsteroidal anti-inflammatory drug (NSAID) associated coagulopathy, thrombocytopenia, glanzmann's thrombasthenia, and/or thrombosis” (YALE UNIVERSITY, priority 2011, dated 2021)

Experiment: Ap4A hydrolysis by NPP enzymes (linked malachite green assay, absorbance change at 259 nm, HPLC)
Type: biochemical
Method: NPP4 nucleotide substrates were identified by directly detecting the free phosphate (Pi) product using malachite green (ADP substrate) or by a linked hydrolysis assay with alkaline phosphatase combined with malachite green (lipid substrates and nucleotide substrates without terminal P1) to measure released Pi. 50 μM substrate P1 equivalents (e.g. 25 μM ADP) were treated with 50 nM NPP4 for 1 hr 37 min (lipids) or 3 hr 15 min (all other substrates). For substrates without terminal phosphates, 10 units of calf intestinal alkaline phosphatase (M0290S, 10,000 units/mL, New England Biolabs, Ipswich, Mass.) was added for a final reaction volume of 50 μL. 100 μL of malachite green (BIOMOL GREEN™, Enzo Life Sciences, Plymouth Meeting, Pa.) was added to quench the reactions. The amount of phosphate released was measured by absorbance at 620 nm by a Biotek Synergy Mx plate reader (Winooski, Vt.) in 96-well plates (3679, Corning Inc., Corning, N.Y.) and compared against a phosphate standard curve.
The kinetics of the steady state Ap3A/Ap4A cleavage by NPP4 was measured from time courses of absorbance change at 259 nm using a UV spectrophotometer with a 0.1 cm optical path length cuvette or a stopped-flow device with a 0.2 cm optical path length cell. The enzymology reactions in 50 mM Tris pH 8.0, 140 mM NaCl, 5 mM KCl, 1 mM MgCl2 and 1 mM CaCl2 were started by addition of 1 μM NPP4 to varying concentrations of Ap3A/Ap4A (up to 800 μM) solution (UV spectrophotometer) or by rapid mixing of NPP4 and Ap3A/Ap4A (stopped-flow). The substrate concentrations higher than 800 μM have absorption too high to be measured by a UV spectrophotometer and stopped-flow, and were therefore measured by HPLC. […] Therefore, the rate of a product production or enzyme turnover measured by the absorption change assay can be calculated by the rate of absorption change
[formula] according to the following formula;
[formula] where Δl is optical path length. The following absorption coefficients were used: Ap3A: 25.75 mM^−1 cm^−1. Ap4A: 25.4 mM^−1 cm^−1. […]
The HPLC protocol used to measure Ap3A/Ap4A cleavage by NPP4 and for product identification is modified from that of Stocchi et al. (1985, Anal Biochem 146:118-24). The reactions containing varying concentrations of Ap3A/Ap4A in the same buffer as in the absorbance change assay were started by addition of 0.2-1 μM NPP4 and quenched at various time points by equal volume of 3 M formic acid, or 0.5 N KOH and re-acidified by glacial acetic acid to pH 6. The quenched reaction solution was diluted systematically and loaded a HPLC system (Waters, Milford Mass.) and substrates and products were monitored by UV absorbance at 254 or 259 nm. […] The products and substrate were quantified according to the integration of their correspondent peaks and the formula: […]

B1: NPP4: soluble recombinant extracellular domain of human NPP4 (NCBI AAH18054.1, residues 1-407 of SEQ ID NO:1), expressed in insect cells (protein, listed as Homo sapiens)
chain: MKLLVILLFSGLITGFRSDSSSSLPPKLLLVSFDGFRADYLKNYEFPHLQNFIKEGVLVEHVKNVFITKTFPNHYSIVTGLYEESHGIVANSMYDAVTKKHFSDSNDKDPFWWNEAVPIWVTNQLQENRSSAAAMWPGTDVPIHDTISSYFMNYNSSVSFEERLNNITMWLNNSNPPVTFATLYWEEPDASGHKYGPEDKENMSRVLKKIDDLIGDLVQRLKMLGLWENLNVIITSDHGMTQCSQDRLINLDSCIDHSYYTLIDLSPVAAILPKINRTEVYNKLKNCSPHMNVYLKEDIPNRFYYQHNDRIQPIILVADEGWTIVLNESSQKLGDHGYDNSLPSMHPFLAAHGPAFHKGYKHSTINIVDIYPMMCHILGLKPHPNNGTFGHTKCLLVDQWCINLPEA
- Ap4A cleavage (qualitative) (linked alkaline phosphatase / malachite green assay): detected cleavage
- maximum catalytic turnover rate (kcat) for Ap4A (substrate Ap4A): ~1 s^−l
- kcat, Ap4A Hydrolysis by NPP4 (substrate Ap4A, steady state): 0.78 s^−1NPP4^−1
- Km (substrate Ap4A, steady state, read-out: KM, Ap4A Hydrolysis by NPP4): 210 µM
